As a reminder, the Kd is a measure of binding affinity in units of concentration. A high value points to lower affinity. For orientation: Km means the concentration of substrate that gives half-maximal velocity. As a reminder, the kcat is the number of substrate molecules converted per active site and unit of time at saturation. By kcat/Km is commonly meant the turnover number divided by the Michaelis constant.

The text below walks through data of publication PMC10087753 (The Febs Journal, 2022).

The target of data set [1] is T1, PcCel7D (Phanerodontia chrysosporium, UniProt Q7LIJ0).
T1 sequence (Q7LIJ0 19-510): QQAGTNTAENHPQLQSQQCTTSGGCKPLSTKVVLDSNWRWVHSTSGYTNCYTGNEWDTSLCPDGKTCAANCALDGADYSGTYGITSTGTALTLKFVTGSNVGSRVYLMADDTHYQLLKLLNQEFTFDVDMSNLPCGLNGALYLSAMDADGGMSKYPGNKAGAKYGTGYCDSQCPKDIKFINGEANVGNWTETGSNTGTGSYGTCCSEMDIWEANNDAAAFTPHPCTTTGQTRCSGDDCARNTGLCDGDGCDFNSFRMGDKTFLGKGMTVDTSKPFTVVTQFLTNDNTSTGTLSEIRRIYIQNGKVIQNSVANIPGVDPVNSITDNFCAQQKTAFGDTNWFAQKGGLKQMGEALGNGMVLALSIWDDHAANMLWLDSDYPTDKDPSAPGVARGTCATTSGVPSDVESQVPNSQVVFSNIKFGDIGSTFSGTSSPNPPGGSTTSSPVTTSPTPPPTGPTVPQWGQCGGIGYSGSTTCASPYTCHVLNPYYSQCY
Put plainly: inhibition of pNPL hydrolysis, absorbance of pNP at […] nm. The conditions noted are these: read-out: K i for lactose (μM) ^b; pNPL as substrate, 0.2 mM lactose; competitive; 10 mM sodium acetate, pH 5.0, 20 °C. The data set is classed as biochemical.

Data set [2] concerns the target T2, TrCel7A (Trichoderma reesei, UniProt P62694).
T2 sequence (P62694 18-513): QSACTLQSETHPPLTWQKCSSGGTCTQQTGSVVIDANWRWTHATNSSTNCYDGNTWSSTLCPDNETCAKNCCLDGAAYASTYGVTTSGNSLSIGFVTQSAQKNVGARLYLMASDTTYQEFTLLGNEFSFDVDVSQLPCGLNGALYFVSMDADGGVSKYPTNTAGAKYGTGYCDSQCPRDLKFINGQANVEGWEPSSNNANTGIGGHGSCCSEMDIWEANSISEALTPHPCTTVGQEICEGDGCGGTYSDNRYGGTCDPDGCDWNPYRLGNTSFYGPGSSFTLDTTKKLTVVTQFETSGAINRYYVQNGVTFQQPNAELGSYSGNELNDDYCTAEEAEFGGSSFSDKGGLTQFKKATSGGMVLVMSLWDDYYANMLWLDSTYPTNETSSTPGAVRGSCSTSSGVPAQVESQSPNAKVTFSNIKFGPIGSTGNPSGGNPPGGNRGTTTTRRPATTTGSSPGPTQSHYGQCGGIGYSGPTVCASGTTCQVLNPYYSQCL
The description is as above. The data set is classed as biochemical. The conditions noted are these: read-out: K i for lactose (μM) ^b; pNPL as substrate, 0.2 mM lactose; competitive; 10 mM sodium acetate, pH 5.0, 20 °C.

The target in data set [3] is T2, TrCel7A. Put plainly: inhibition of MUC hydrolysis, fluorometric. The data set is classed as biochemical.
For data set [4], the target named is T3, TrCel7A (Trichoderma reesei, UniProt P62694, E229Q).
T3 sequence (P62694 18-513 E229Q): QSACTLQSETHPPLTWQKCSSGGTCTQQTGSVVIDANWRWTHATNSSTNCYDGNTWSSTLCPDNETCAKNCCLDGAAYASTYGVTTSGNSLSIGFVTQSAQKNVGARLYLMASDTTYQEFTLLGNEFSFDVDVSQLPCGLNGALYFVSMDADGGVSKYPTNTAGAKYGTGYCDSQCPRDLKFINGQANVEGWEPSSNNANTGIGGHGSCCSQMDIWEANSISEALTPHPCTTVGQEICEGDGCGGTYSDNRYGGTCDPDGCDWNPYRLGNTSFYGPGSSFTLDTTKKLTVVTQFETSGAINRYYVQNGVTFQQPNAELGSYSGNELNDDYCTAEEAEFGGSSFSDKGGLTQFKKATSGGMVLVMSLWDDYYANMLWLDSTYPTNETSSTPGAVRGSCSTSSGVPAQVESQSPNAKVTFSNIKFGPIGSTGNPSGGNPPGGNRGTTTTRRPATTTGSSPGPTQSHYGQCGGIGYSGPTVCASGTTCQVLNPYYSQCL
Nature of the data set: intrinsic protein fluorescence quenching titration. The format is binding.

For data set [5], the target named is T4, TrCel7A (Trichoderma reesei, UniProt P62694, D231N).
T4 sequence (P62694 18-513 D231N): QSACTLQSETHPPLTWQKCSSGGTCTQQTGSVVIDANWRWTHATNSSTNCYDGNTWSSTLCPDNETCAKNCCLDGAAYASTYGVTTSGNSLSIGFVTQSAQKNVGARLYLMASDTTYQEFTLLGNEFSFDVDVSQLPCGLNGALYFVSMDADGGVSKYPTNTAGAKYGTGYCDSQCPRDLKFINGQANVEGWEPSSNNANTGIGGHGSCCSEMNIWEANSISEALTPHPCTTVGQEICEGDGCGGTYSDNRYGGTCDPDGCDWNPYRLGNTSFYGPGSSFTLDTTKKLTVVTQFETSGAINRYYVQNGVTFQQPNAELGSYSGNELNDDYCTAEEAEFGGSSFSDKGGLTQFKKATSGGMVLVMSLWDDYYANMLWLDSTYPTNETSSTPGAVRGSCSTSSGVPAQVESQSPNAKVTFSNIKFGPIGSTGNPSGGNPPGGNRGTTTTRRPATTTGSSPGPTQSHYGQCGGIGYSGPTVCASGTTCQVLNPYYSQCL
Nature of the data set: intrinsic protein fluorescence quenching titration. The format is binding.

The target of data set [6] is T2, TrCel7A. Put plainly: intrinsic protein fluorescence quenching titration. The format is binding.
Data set [7] deals with T1, PcCel7D. Put plainly: intrinsic protein fluorescence quenching titration. The data set is classed as binding.
The target of data set [8] is T5, TrCel7A (Trichoderma reesei, UniProt P62694, E234Q).
T5 sequence (P62694 18-513 E234Q): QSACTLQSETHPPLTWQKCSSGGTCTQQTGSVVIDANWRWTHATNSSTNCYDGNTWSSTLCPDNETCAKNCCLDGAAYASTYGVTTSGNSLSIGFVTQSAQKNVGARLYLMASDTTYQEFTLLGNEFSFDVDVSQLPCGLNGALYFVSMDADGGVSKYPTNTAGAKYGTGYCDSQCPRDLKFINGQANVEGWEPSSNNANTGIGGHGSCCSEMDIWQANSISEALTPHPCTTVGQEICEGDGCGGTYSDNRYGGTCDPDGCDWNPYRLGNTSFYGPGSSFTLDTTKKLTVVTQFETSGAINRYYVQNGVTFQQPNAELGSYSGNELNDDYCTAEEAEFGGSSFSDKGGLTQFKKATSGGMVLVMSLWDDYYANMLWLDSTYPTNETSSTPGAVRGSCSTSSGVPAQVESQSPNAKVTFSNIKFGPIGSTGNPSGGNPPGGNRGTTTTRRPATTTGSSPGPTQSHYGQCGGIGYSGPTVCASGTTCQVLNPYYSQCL
Nature of the data set: intrinsic protein fluorescence quenching titration. The format is binding.

Substrate in data set [9]: O=[N+]([O-])c1ccccc1O[C@@H]1O[C@H](CO)[C@@H](O[C@@H]2O[C@H](CO)[C@@H](O)[C@H](O)[C@H]2O)[C@H](O)[C@H]1O
Put plainly: purified protein. The conditions noted are these: 50 mM sodium acetate, pH 5.0, 25 °C.

Substrate in data set [10]: O=[N+]([O-])c1ccc(O[C@@H]2O[C@H](CO)[C@@H](O[C@@H]3O[C@H](CO)[C@@H](O)[C@H](O)[C@H]3O)[C@H](O)[C@H]2O)cc1
Put plainly: purified protein. The conditions noted are these: 50 mM sodium acetate, pH 5.0, 25 °C.

Substrate in data set [11]: [H][C@@]1(O[C@H]2[C@H](O)[C@@H](O)[C@H](Oc3ccc([N+](=O)[O-])cc3)O[C@@H]2CO)O[C@H](CO)[C@H](O)[C@H](O)[C@H]1O
Nature of the data set: purified protein. The conditions noted are these: 50 mM sodium acetate, pH 5.0, 25 °C.

Substrate in data set [12]: Cc1cc(=O)oc2cc(O[C@@H]3O[C@H](CO)[C@@H](O[C@@H]4O[C@H](CO)[C@@H](O)[C@H](O)[C@H]4O)[C@H](O)[C@H]3O)ccc12
Nature of the data set: purified protein. The conditions noted are these: 50 mM sodium acetate, pH 5.0, 25 °C.

Consider `OC[C@H]1O[C@@H](O[C@H]2[C@H](O)[C@@H](O)C(O)O[C@@H]2CO)[C@H](O)[C@@H](O)[C@H]1O` (some centres unmarked) [lactose], for which the results for the Ki at PcCel7D [1] and at TrCel7A [2] were 183 ± 16 µM and 180 ± 16 µM, respectively.
As for `O=[N+]([O-])c1ccccc1O[C@@H]1O[C@H](CO)[C@@H](O[C@@H]2O[C@H](CO)[C@@H](O)[C@H](O)[C@H]2O)[C@H](O)[C@H]1O` [oNPC, o-nitrophenyl-β-D-cellobioside], the Ki on TrCel7A [3] was found to be 5.6 ± 0.5 µM. Moreover, the Kd is 4.7 ± 0.4 µM at TrCel7A [4]; 7.1 ± 0.7 µM at TrCel7A [5]; 7.4 ± 0.4 µM on TrCel7A [6]; 110 ± 10 µM at PcCel7D [7]; 3.9 ± 0.4 µM on TrCel7A [8].

B1: PcCel7D (Phanerodontia chrysosporium) (protein)
chain: QQAGTNTAENHPQLQSQQCTTSGGCKPLSTKVVLDSNWRWVHSTSGYTNCYTGNEWDTSLCPDGKTCAANCALDGADYSGTYGITSTGTALTLKFVTGSNVGSRVYLMADDTHYQLLKLLNQEFTFDVDMSNLPCGLNGALYLSAMDADGGMSKYPGNKAGAKYGTGYCDSQCPKDIKFINGEANVGNWTETGSNTGTGSYGTCCSEMDIWEANNDAAAFTPHPCTTTGQTRCSGDDCARNTGLCDGDGCDFNSFRMGDKTFLGKGMTVDTSKPFTVVTQFLTNDNTSTGTLSEIRRIYIQNGKVIQNSVANIPGVDPVNSITDNFCAQQKTAFGDTNWFAQKGGLKQMGEALGNGMVLALSIWDDHAANMLWLDSDYPTDKDPSAPGVARGTCATTSGVPSDVESQVPNSQVVFSNIKFGDIGSTFSGTSSPNPPGGSTTSSPVTTSPTPPPTGPTVPQWGQCGGIGYSGSTTCASPYTCHVLNPYYSQCY
Regarding B1, the Km came to 3200 ± 100 µM in “purified protein [9]”, 1300 ± 160 µM in “purified protein [10]”, 5500 ± 400 µM in “purified protein [11]” and 210 ± 20 µM in “purified protein [12]”. The kcat in the data set “purified protein [9]” turned out to be 0.015 ± 0.002 s⁻¹; in the data set “purified protein [10]”, 0.046 ± 0.0021 s⁻¹; in “purified protein [11]”, 0.17 ± 0.01 s⁻¹; in the data set “purified protein [12]” it was 0.22 ± 0.01 s⁻¹. Further, the kcat/Km came to 4.6 M⁻¹ s⁻¹ in the data set “purified protein [9]”, 35 M⁻¹ s⁻¹ in “purified protein [10]”, 31 M⁻¹ s⁻¹ in the data set “purified protein [11]” and 1050 M⁻¹ s⁻¹ in the data set “purified protein [12]”.

B2: TrCel7A (Trichoderma reesei) (protein)
chain: QSACTLQSETHPPLTWQKCSSGGTCTQQTGSVVIDANWRWTHATNSSTNCYDGNTWSSTLCPDNETCAKNCCLDGAAYASTYGVTTSGNSLSIGFVTQSAQKNVGARLYLMASDTTYQEFTLLGNEFSFDVDVSQLPCGLNGALYFVSMDADGGVSKYPTNTAGAKYGTGYCDSQCPRDLKFINGQANVEGWEPSSNNANTGIGGHGSCCSEMDIWEANSISEALTPHPCTTVGQEICEGDGCGGTYSDNRYGGTCDPDGCDWNPYRLGNTSFYGPGSSFTLDTTKKLTVVTQFETSGAINRYYVQNGVTFQQPNAELGSYSGNELNDDYCTAEEAEFGGSSFSDKGGLTQFKKATSGGMVLVMSLWDDYYANMLWLDSTYPTNETSSTPGAVRGSCSTSSGVPAQVESQSPNAKVTFSNIKFGPIGSTGNPSGGNPPGGNRGTTTTRRPATTTGSSPGPTQSHYGQCGGIGYSGPTVCASGTTCQVLNPYYSQCL
For B2, in “purified protein [12]”, the Km was 12 ± 1 µM, the catalytic constant (kcat) was found to be 0.013 ± 0.001 s⁻¹ and the kcat/Km is 1080 M⁻¹ s⁻¹.
